We go through 26 substances from patent publication US7070788.

For experiment [1], the target named is human TSH receptor (CHO-JP09 cells) (human) (UniProt P16473). Nature of the experiment: cell-based or functional assay.
Experiment [2] has as its target porcine TSH receptor (solubilized porcine thyroid membranes) (porcine) (UniProt Q8SPP9). Nature of the experiment: competitive displacement of 125I-bTSH from solubilized porcine thyroid membranes.
The target is the same in experiment [3]. Put plainly: competitive binding assay to porcine thyroid membranes.
For experiment [4], the target named is hCG (LH/CG) receptor of MA-10 transformed murine Leydig cells (murine) (UniProt P30730). Nature of the experiment: cell-based or functional assay.
Experiment [5] shares this target. Put plainly: competitive binding with 125I-hCG on MA-10 cells.
Experiment [6] deals with rat TSH receptor (FRTL-5 cells) (rat) (UniProt P21463). Put plainly: cell-based or functional assay.
rat TSH receptor (FRTL-5 cells) (rat), sequence (P21463 22-764): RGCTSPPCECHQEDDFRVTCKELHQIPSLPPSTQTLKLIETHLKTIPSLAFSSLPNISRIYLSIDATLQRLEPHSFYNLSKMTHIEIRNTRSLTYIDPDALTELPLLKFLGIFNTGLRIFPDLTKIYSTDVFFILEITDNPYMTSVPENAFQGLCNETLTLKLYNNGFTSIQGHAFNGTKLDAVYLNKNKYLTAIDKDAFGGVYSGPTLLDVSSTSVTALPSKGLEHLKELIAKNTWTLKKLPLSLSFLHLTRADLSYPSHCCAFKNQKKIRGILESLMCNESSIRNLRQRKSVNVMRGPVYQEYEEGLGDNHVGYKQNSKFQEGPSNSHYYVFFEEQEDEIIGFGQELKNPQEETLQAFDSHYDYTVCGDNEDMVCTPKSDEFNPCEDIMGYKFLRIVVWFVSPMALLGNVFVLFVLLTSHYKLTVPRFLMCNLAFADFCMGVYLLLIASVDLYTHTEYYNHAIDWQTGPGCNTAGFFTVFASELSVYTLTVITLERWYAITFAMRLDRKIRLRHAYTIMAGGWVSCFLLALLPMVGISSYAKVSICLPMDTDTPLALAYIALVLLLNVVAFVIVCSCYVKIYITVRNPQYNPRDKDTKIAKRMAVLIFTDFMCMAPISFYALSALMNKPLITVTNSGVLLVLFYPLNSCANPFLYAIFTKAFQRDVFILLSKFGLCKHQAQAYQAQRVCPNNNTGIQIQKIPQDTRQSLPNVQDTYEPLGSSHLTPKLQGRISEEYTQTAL

porcine TSH receptor (solubilized porcine thyroid membranes) (porcine), sequence (Q8SPP9 22-764): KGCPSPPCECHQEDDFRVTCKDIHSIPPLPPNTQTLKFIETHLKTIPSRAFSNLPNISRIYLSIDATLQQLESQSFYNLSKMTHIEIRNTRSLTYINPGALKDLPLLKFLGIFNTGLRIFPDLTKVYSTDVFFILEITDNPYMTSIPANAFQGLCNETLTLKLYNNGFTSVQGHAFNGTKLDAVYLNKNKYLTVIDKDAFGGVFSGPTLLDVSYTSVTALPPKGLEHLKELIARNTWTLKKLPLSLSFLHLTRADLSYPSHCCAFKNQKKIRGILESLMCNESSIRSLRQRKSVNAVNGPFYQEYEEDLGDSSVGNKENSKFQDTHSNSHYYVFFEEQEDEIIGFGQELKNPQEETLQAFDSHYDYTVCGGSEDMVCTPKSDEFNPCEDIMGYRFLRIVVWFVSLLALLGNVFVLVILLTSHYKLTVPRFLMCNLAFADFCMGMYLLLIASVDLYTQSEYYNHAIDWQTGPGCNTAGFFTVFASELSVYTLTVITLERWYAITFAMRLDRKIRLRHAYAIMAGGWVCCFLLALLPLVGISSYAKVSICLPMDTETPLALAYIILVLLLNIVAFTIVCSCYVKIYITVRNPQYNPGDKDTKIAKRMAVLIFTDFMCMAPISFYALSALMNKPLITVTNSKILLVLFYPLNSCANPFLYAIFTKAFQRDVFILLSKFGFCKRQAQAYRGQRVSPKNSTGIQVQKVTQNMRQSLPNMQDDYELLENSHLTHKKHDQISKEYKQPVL
hCG (LH/CG) receptor of MA-10 transformed murine Leydig cells (murine), sequence (P30730 27-700): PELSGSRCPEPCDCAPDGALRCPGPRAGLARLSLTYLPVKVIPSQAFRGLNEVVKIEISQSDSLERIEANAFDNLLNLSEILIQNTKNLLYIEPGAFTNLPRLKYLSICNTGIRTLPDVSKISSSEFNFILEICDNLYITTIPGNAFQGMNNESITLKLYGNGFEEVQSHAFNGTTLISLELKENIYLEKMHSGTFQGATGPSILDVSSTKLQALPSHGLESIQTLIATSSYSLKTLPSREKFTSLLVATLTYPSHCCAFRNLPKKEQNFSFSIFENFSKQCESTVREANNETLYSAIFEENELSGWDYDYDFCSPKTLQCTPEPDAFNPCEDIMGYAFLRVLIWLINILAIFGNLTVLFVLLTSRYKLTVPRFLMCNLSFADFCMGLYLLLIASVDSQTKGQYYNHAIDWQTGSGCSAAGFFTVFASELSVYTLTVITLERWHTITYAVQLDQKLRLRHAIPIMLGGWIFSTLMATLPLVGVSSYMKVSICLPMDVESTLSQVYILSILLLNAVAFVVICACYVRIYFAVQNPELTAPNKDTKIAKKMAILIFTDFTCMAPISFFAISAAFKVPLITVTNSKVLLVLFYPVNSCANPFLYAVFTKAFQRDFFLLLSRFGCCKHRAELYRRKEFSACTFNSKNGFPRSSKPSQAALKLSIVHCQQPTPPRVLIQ

Consider “hTSH α-subunit mutant Q20K (from UniProt P01215 25-116; P01222 21-132) (ligand)”, for which, in experiment [1], the cAMP stimulation in JP09 cells, EC50 stood at 1.16 ng/mL and the cAMP stimulation in JP09 cells, Relative potency (WT = 1) (fold (WT = 1)) is 5.8. In experiment [2], this substance displayed an EC25 of inhibition of 125I-bTSH binding of 21.3 ng/mL.
Take “hTSH α-subunit mutant P16K (from UniProt P01215 25-116; P01222 21-132) (ligand)”: in experiment [1], the cAMP stimulation in JP09 cells, EC50 worked out at 1.05 ng/mL and the cAMP stimulation in JP09 cells, Relative potency (WT = 1) (fold (WT = 1)) is 6.4. Moreover, the fold greater affinity than WT-hTSH in experiment [3] was found to be 5 fold. This substance showed an EC25 of inhibition of 125I-bTSH binding in experiment [2] of 18.3 ng/mL.
As for “hTSH α-subunit mutant R67K (from UniProt P01215 25-116; P01222 21-132) (ligand)”, in experiment [1], the cAMP stimulation in JP09 cells, EC50 came to 7.36 ng/mL and the cAMP stimulation in JP09 cells, Relative potency (WT = 1) (fold (WT = 1)) was found to be 0.9. Besides, the EC25 of inhibition of 125I-bTSH binding in experiment [2] is 62.5 ng/mL.
For the substance “hTSH mutant TSHβ-L69R + α Q13K + P16K + Q20K + E14K (from UniProt P01215 25-116; P01222 21-132) (ligand)”, in experiment [1], the cAMP stimulation in JP09 cells, EC50 was 0.07 ng/mL; the cAMP stimulation in JP09 cells, Relative potency (WT = 1) (fold (WT = 1)) was 95.7; the efficacy (maximal response) of cAMP stimulation in CHO-JP09 cells, fold over WT-hTSH was determined as 1.5 fold. Also, the EC25 of inhibition of 125I-bTSH binding in experiment [2] turned out to be 1.3 ng/mL.
Regarding “hCG α-subunit triple mutant Q13K + P16K + Q20K (from UniProt P01215 25-116; P0DN86 21-165) (ligand)”, in experiment [4], the Progesterone synthesis in MA10 cells, EC50 amounted to 1.58 ng/mL and the Progesterone synthesis in MA10 cells, Max (%) is 216 % of WT-hCG.
In the same order, the values of “hCG α-subunit mutant T11K (from UniProt P01215 25-116; P0DN86 21-165) (ligand)” are 2.79 ng/mL and 156 % of WT-hCG.
For the substance “hCG α-subunit mutant P16K with WT-hCGβ (from UniProt P01215 25-116; P0DN86 21-165) (ligand)”, in experiment [4], the Progesterone synthesis in MA10 cells, EC50 is 2.05 ng/mL; the Progesterone synthesis in MA10 cells, Max (%) is 161 % of WT-hCG; the progesterone release assay, fold potency over wild type stood at 3.4 fold; the stimulation of progesterone production in MA-10 cells, fold over WT-hCG turned out to be 4 fold. Further, the fold receptor binding activity over WT-hCG in experiment [5] is 4 fold.
Turning to “hCG α-subunit mutant R67K (from UniProt P01215 25-116; P0DN86 21-165) (ligand)”, in experiment [4], the Progesterone synthesis in MA10 cells, EC50 amounted to 4.6 ng/mL and the Progesterone synthesis in MA10 cells, Max (%) is 145 % of WT-hCG.
On to “hTSH α-subunit mutant P16K + F17T (from UniProt P01215 25-116; P01222 21-132) (ligand)”, for which, in experiment [1], the cAMP stimulation in JP09 cells, EC50 was found to be 3.52 ng/mL and the cAMP stimulation in JP09 cells, Relative potency (WT = 1) (fold (WT = 1)) came to 1.9.
For “hTSH β-subunit mutant E63R (from UniProt P01215 25-116; P01222 21-132) (ligand)”, the potency relative to hTSH in experiment [1] and in experiment [6] was 2 to 4 fold in each case.
“hTSH β-subunit mutant I58R+E63R+L69R (from UniProt P01215 25-116; P01222 21-132) (ligand)”: in experiment [1], the efficacy relative to wild type hTSH (cAMP stimulation, FIG. 2g) was 1.7 fold and the potency relative to wild type hTSH (cAMP stimulation, FIG. 2g) is 50 fold.
With “hTSH β-subunit mutant TSHβ-L69R (from UniProt P01215 25-116; P01222 21-132) (ligand)”, in experiment [1], the cAMP stimulation in JP09 cells, EC50 turned out to be 2.75 ng/mL and the cAMP stimulation in JP09 cells, Relative potency (WT = 1) (fold (WT = 1)) turned out to be 2.4.
Consider “hTSH α-subunit quadruple mutant Q13K + P16K + Q20K + E14K (from UniProt P01215 25-116; P01222 21-132) (ligand)”, for which, in experiment [1], the cAMP stimulation in JP09 cells, EC50 came out at 0.17 ng/mL; the cAMP stimulation in JP09 cells, Relative potency (WT = 1) (fold (WT = 1)) turned out to be 39.4; the efficacy (maximal response) of cAMP stimulation in CHO-JP09 cells, fold over WT-hTSH amounted to 1.5 fold. In experiment [2], the EC25 of inhibition of 125I-bTSH binding came to 2.1 ng/mL.
Consider “hTSH α-subunit double mutant P16K + Q20K (from UniProt P01215 25-116; P01222 21-132) (ligand)”, for which, in experiment [1], the cAMP stimulation in JP09 cells, EC50 came out at 0.57 ng/mL and the cAMP stimulation in JP09 cells, Relative potency (WT = 1) (fold (WT = 1)) was determined as 11.8. The substance further gave an EC25 of inhibition of 125I-bTSH binding in experiment [2] of 6.4 ng/mL.
On to “hTSH mutant TSHβ-L69R + α Q13K + P16K + Q20K (from UniProt P01215 25-116; P01222 21-132) (ligand)”, for which, in experiment [1], the cAMP stimulation in JP09 cells, EC50 is 0.19 ng/mL and the cAMP stimulation in JP09 cells, Relative potency (WT = 1) (fold (WT = 1)) was 35.3. In experiment [6], this substance came in with a fold lower concentration than WT-hTSH for half-maximal stimulation of 3H-thymidine incorporation in FRTL-5 cells of 27 fold. The same substance came in with an EC25 of inhibition of 125I-bTSH binding in experiment [2] of 1.8 ng/mL.
On to “hCG α-subunit double mutant P16K + Q20K (from UniProt P01215 25-116; P0DN86 21-165) (ligand)”, for which, in experiment [4], the Progesterone synthesis in MA10 cells, EC50 stood at 1.7 ng/mL and the Progesterone synthesis in MA10 cells, Max (%) was 212 % of WT-hCG.
For “hCG α-subunit mutant Q20K (from UniProt P01215 25-116; P0DN86 21-165) (ligand)” the same measures were 2.98 ng/mL and 134 % of WT-hCG.
For the substance “hTSH α-subunit mutant Q13K (from UniProt P01215 25-116; P01222 21-132) (ligand)”, in experiment [1], the cAMP stimulation in JP09 cells, EC50 turned out to be 1.89 ng/mL and the cAMP stimulation in JP09 cells, Relative potency (WT = 1) (fold (WT = 1)) was 3.5. This substance returned an EC25 of inhibition of 125I-bTSH binding in experiment [2] of 22.5 ng/mL.
In the same order, the values of “hTSH α-subunit mutant Q50P (from UniProt P01215 25-116; P01222 21-132) (ligand)” are 5.54 ng/mL, 1.2 and 77.5 ng/mL.
With “hCG α-subunit mutant Q50P (from UniProt P01215 25-116; P0DN86 21-165) (ligand)”, in experiment [4], the Progesterone synthesis in MA10 cells, EC50 was 3.9 ng/mL and the Progesterone synthesis in MA10 cells, Max (%) was 137 % of WT-hCG.
On to “hTSH α-subunit triple mutant Q13K + P16K + Q20K with WT-hTSHβ (from UniProt P01215 25-116; P01222 21-132) (ligand)”, for which, in experiment [1], the cAMP stimulation in JP09 cells, EC50 is 0.28 ng/mL and the cAMP stimulation in JP09 cells, Relative potency (WT = 1) (fold (WT = 1)) turned out to be 23.9. The same substance showed a fold lower concentration than WT-hTSH for half-maximal stimulation of 3H-thymidine incorporation in FRTL-5 cells in experiment [6] of 18 fold. Further, in experiment [2], the EC25 of inhibition of 125I-bTSH binding is 2.3 ng/mL.
With “hTSH α-subunit mutant T11K (from UniProt P01215 25-116; P01222 21-132) (ligand)”, in experiment [1], the cAMP stimulation in JP09 cells, EC50 is 4.47 ng/mL and the cAMP stimulation in JP09 cells, Relative potency (WT = 1) (fold (WT = 1)) turned out to be 1.5. The substance also had an EC25 of inhibition of 125I-bTSH binding in experiment [2] of 68.3 ng/mL.
For “hCG α-subunit quadruple mutant Q13K + P16K + Q20K + E14K (from UniProt P01215 25-116; P0DN86 21-165) (ligand)”, in experiment [4], the Progesterone synthesis in MA10 cells, EC50 turned out to be 1.65 ng/mL and the Progesterone synthesis in MA10 cells, Max (%) is 205 % of WT-hCG.
With “hTSH β-subunit mutant I58R+E63R (from UniProt P01215 25-116; P01222 21-132) (ligand)”, in experiment [1], the efficacy relative to wild type hTSH (cAMP stimulation, FIG. 2g) amounted to 1.5 fold and the potency relative to wild type hTSH (cAMP stimulation, FIG. 2g) was found to be 15 fold.
As to “hCG α-subunit mutant Q13K (from UniProt P01215 25-116; P0DN86 21-165) (ligand)”, in experiment [4], the Progesterone synthesis in MA10 cells, EC50 worked out at 2.46 ng/mL and the Progesterone synthesis in MA10 cells, Max (%) was 115 % of WT-hCG.
As for “hTSH β-subunit mutant I58R (from UniProt P01215 25-116; P01222 21-132) (ligand)”, the potency relative to hTSH in experiment [1] and in experiment [6] was 2 to 4 fold in each case.
